Data on 160 substances can be found in patent US20240207421A1, “NERVE TARGETING PEPTIDES AND METHODS OF USE” (ALUME BIOSCIENCES, INC., priority 2020, published 2024).

Human Myelin PLP (human), sequence (P60201 2-277 limits assumed): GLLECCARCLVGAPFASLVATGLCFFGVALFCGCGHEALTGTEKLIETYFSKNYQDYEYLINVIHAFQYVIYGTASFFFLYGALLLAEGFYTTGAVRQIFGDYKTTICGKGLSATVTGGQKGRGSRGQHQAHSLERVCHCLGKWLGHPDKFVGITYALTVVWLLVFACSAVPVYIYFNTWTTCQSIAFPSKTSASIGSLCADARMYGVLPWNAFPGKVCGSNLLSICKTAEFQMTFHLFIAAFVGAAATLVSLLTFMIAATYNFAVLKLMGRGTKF

In the first test the target is Human Myelin Basic Protein (Homo sapiens, UniProt P02686). Put plainly: phage display, NGS count.
Human Myelin Basic Protein, sequence (P02686 135-304 limits assumed): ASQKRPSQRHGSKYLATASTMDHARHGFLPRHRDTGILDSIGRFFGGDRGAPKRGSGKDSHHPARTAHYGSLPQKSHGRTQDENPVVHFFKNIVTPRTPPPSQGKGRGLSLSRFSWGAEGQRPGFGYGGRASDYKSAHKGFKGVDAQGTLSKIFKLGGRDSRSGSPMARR
RTTDWWT (peptide) displayed a Count of 6.
SSGMLSK (peptide) yielded a Count of 7.
The substance VGTFWTR (peptide) came in with a Count of 6.
For the substance NTPKVLA (peptide), the Count was 10.
As for ALRDTRV (peptide), the Count came to 6.
LVPPVNH (peptide): the Count was found to be 6.
The same measure, in the same setting: the same measure for SYRSMAP (peptide): 6.
The same measure, in the same setting: the same measure for MDLSLKP (peptide): 10; for HQMRTML (peptide): 6.
Still for that read-out and setting: with KNSIAPR (peptide) the figure was 8.
Turning to GQWWKML (peptide), the Count was 6.
On the same count and under the same terms, the same measure for GRHTDVV (peptide): 6; for FKLPWAS (peptide): 7; for GPRVTPH (peptide): 6.
On the same count and under the same terms, the same measure for AKFTMWV (peptide): 6; for ASNTSKG (peptide): 7.
NGVSSSL (peptide) gave a Count of 6.
Take FSARTNT (peptide): the Count was found to be 9.
Substance GEPALVT (peptide) came in with a Count of 6.
Turning to RVIPSTT (peptide), the Count worked out at 6.
As to GSPYGWG (peptide), the Count amounted to 6.
On the same count and under the same terms, with ALGTRPL (peptide) the figure was 7; with AILTRPP (peptide), 7; with QGAYVRP (peptide), 6.
Same read-out and setting: the same measure for NSSPHQI (peptide): 7; for TPLYLSS (peptide): 7.
The same measure, in the same setting: the same measure for NLTYLRF (peptide): 6; for SGNLKKA (peptide): 7.
YSSRLND (peptide): the Count amounted to 6.
SSFYVAY (peptide) came in with a Count of 6.
Still for that read-out and setting: with SAVLMPP (peptide) the figure was 6; with HSSATMS (peptide), 6; with ALYNQMT (peptide), 6.
TRIPILL (peptide) yielded a Count of 6.
As for IGTRWHQ (peptide), the Count was 6.
Same read-out and setting: with ESPYPHS (peptide) the figure was 7; with WDLPQNR (peptide), 6.
Consider WDLRHSK (peptide), for which the Count is 6.
Substance QNSYLSN (peptide) showed a Count of 8.
Turning to LMLPQLE (peptide), the Count is 6.
KMSLAPP (peptide) displayed a Count of 6.
On the same count and under the same terms, with SNAHTLP (peptide) the figure was 6.
Same read-out and setting: the same measure for YATATPS (peptide): 8; for KVHHLAR (peptide): 6.
Still for that read-out and setting: the same measure for SLWTHRT (peptide): 6; for SRHLPPL (peptide): 6.
For the substance FQLSYET (peptide), the Count amounted to 6.
Regarding TGPSSAV (peptide), the Count was determined as 6.
The same measure, in the same setting: the same measure for WSPRWPS (peptide): 7; for HAHWARL (peptide): 6.
In the case of TSPPLAH (peptide), the Count came out at 8.
Same read-out and setting: with KIITTKS (peptide) the figure was 6; with IPYSQMP (peptide), 6.
GVAEVGL (peptide) displayed a Count of 6.
SIRMTEI (peptide) showed a Count of 7.
The same measure, in the same setting: with VLSPYHN (peptide) the figure was 6; with MPSLKHQ (peptide), 8.
VVDMSTY (peptide) gave a Count of 7.
In turn, DVVKDVI (peptide) gave a Count of 7.
Same read-out and setting: the same measure for AQFLTIY (peptide): 6; for HRTHLHQ (peptide): 6; for ETHYKIA (peptide): 6.
The same measure, in the same setting: the same measure for TLLTALT (peptide): 7; for HFYGPGP (peptide): 9.
Still for that read-out and setting: with INFPFAV (peptide) the figure was 6; with HPWLGNR (peptide), 9.
As to HPTGTPT (peptide), the Count is 7.
Still for that read-out and setting: with VAHQRVS (peptide) the figure was 8.
Still for that read-out and setting: with ELKSLRF (peptide) the figure was 6; with AQLGAFR (peptide), 6.
As for QGTLFDT (peptide), the Count was determined as 7.
The same measure, in the same setting: the same measure for TSRLVST (peptide): 8.
In the case of FSAGVGK (peptide), the Count was determined as 7.
The same measure, in the same setting: the same measure for HYSPNVM (peptide): 9; for LITHPQL (peptide): 6; for LELHQNV (peptide): 6.

A further test concerns the target Human Myelin PLP (human) (UniProt P60201). Put plainly: phage display, NGS count.
As to EKSTTVA (peptide), the Count came to 30.
MKIMPMD (peptide) had a Count of 26.
ARFVPLT (peptide) returned a Count of 30.
The same measure, in the same setting: with AQASSAR (peptide) the figure was 27.
The same measure, in the same setting: the same measure for SLPSLLP (peptide): 26; for DRHEGHR (peptide): 26; for SLNRGGA (peptide): 28.
NDASTVS (peptide) gave a Count of 28.
Same read-out and setting: the same measure for VTGPGTP (peptide): 26; for ASLTLAL (peptide): 26.
The same measure, in the same setting: the same measure for FSTPTNV (peptide): 29; for SGLHYAL (peptide): 32; for KPSASIY (peptide): 26.
Substance MPHAPVQ (peptide) displayed a Count of 37.
In turn, RLQPEPT (peptide) showed a Count of 33.
Consider VGYRSAS (peptide), for which the Count amounted to 28.
The substance EVLYPNN (peptide) yielded a Count of 27.
Substance TFPERLR (peptide) yielded a Count of 31.
Still for that read-out and setting: the same measure for SVEKYSK (peptide): 33; for TRASYPQ (peptide): 32.
The same measure, in the same setting: with IRPTHNG (peptide) the figure was 27; with ALFQERK (peptide), 27.
On the same count and under the same terms, the same measure for LPHRLNP (peptide): 27.
LPLRLHA (peptide) gave a Count of 31.
In the case of AHQSSVT (peptide), the Count stood at 42.
On the same count and under the same terms, with HLHTRPT (peptide) the figure was 27; with TKITPHR (peptide), 29.
The substance LMQKPSI (peptide) gave a Count of 29.
For the substance FSLDRDG (peptide), the Count stood at 29.
Take WHYTPSM (peptide): the Count stood at 26.
On the same count and under the same terms, the same measure for IIPPTSV (peptide): 31.
The same measure, in the same setting: with AVVAMNK (peptide) the figure was 28; with TMPIKAM (peptide), 27; with VSSQEQA (peptide), 34.
On the same count and under the same terms, the same measure for QLPRNNL (peptide): 28; for WSPHGYK (peptide): 27.
Regarding GSAWKKH (peptide), the Count was determined as 44.
On the same count and under the same terms, the same measure for SLPGYRH (peptide): 28; for SWDVLEL (peptide): 31; for LPVKNLL (peptide): 26.
In turn, GWSTAIR (peptide) gave a Count of 29.
FRIDKSM (peptide) registered a Count of 26.
On the same count and under the same terms, the same measure for GKSYSQI (peptide): 31; for VPGHISG (peptide): 27; for QPNMLKP (peptide): 33.
YTWTPSR (peptide) yielded a Count of 28.
Take WSPHRSF (peptide): the Count turned out to be 31.
With GIPSSKN (peptide), the Count is 28.
The same measure, in the same setting: with SAQSRSF (peptide) the figure was 26.
The same measure, in the same setting: the same measure for LHQTYRP (peptide): 27.
Same read-out and setting: with GPAAVII (peptide) the figure was 29; with SVVYQNS (peptide), 26; with TGISSTP (peptide), 27.
As to GNVFQTS (peptide), the Count came to 31.
On the same count and under the same terms, with GLWGPSL (peptide) the figure was 26; with SVMWMTP (peptide), 29.
In turn, QRRSVIL (peptide) displayed a Count of 31.
In turn, DGSRDLV (peptide) gave a Count of 30.
Substance NVFSATP (peptide) came in with a Count of 31.
NIPSSIL (peptide) gave a Count of 33.
Still for that read-out and setting: the same measure for SGVATYT (peptide): 31; for HKAPLGT (peptide): 29.
KGVIPAT (peptide) gave a Count of 27.
On the same count and under the same terms, the same measure for VSASWMP (peptide): 27; for TLWAQKT (peptide): 28.
Same read-out and setting: with YSQAISA (peptide) the figure was 27; with YSDTYKH (peptide), 30.
Regarding LPSHASI (peptide), the Count came to 26.
As to EPSSFTF (peptide), the Count worked out at 31.
With GHLQSLF (peptide), the Count was determined as 26.
In the case of WNTADRL (peptide), the Count worked out at 34.
The same measure, in the same setting: the same measure for IDRVRGL (peptide): 29; for LNGISAL (peptide): 32.
In turn, YSSRLTA (peptide) showed a Count of 29.
Still for that read-out and setting: with SALISTR (peptide) the figure was 32; with IHHLESS (peptide), 32.
Same read-out and setting: the same measure for VTPNKAR (peptide): 26.
On to TQPRYPS (peptide), for which the Count is 28.
The same measure, in the same setting: the same measure for TTTIADM (peptide): 26.
Substance VFPERRV (peptide) showed a Count of 28.
On the same count and under the same terms, with SVLPDKL (peptide) the figure was 28.
Regarding VRTSMNH (peptide), the Count was determined as 28.
In the case of TDVEMVP (peptide), the Count worked out at 40.
As to WSRISVD (peptide), the Count is 26.
